# Values joined by “and” are separate entries in the source; they are usually repeats but may differ in a detail not shown here. Equal entries are not always repeated.
# B1: BM3 WT: wild-type bacterial cytochrome P450 BM3 (CYP102A1), Seq ID No. 16 (protein, listed as Bacillus megaterium)
# chain: TIKEMPQPKTFGELKNLPLLNTDKPVQALMKIADELGEIFKFEAPGRVTRYLSSQRLIKEACDESRFDKNLSQALKFVRDFAGDGLFTSWTHEKNWKKAHNILLPSFSQQAMKGYHAMMVDIAVQLVQKWERLNADEHIEVPEDMTRLTLDTIGLCGFNYRFNSFYRDQPHPFITSMVRALDEAMNKLQRANPDDPAYDENKRQFQEDIKVMNDLVDKIIADRKASGEQSDDLLTHMLNGKDPETGEPLDDENIRYQIITFLIAGHETTSGLLSFALYFLVKNPHVLQKAAEEAARVLVDPVPSYKQVKQLKYVGMVLNEALRLWPTAPAFSLYAKEDTVLGGEYPLEKGDELMVLIPQLHRDKTIWGDDVEEFRPERFENPSAIPQHAFKPFGNGQRACIGQQFALHEATLVLGMMLKHFDFEDHTNYELDIKETLTLKPEGFVVKAKSKKIPLGGIPSPSTEQSAKKVRKKAENAHNTPLLVLYGSNMGTAEGTARDLADIAMSKGFAPQVATLDSHAGNLPREGAVLIVTASYNGHPPDNAKQFVDWLDQASADEVKGVRYSVFGCGDKNWATTYQKVPAFIDETLAAKGAENIADRGEADASDDFEGTYEEWREHMWSDVAAYFNLDIENSEDNKSTLSLQFVDSAADMPLAKMHGAFSTNVVASKELQQPGSARSTRHLEIELPKEASYQEGDHLGVIPRNYEGIVNRVTARFGLDASQQIRLEAEEEKLAHLPLAKTVSVEELLQYVELQDPVTRTQLRAMAAKTVCPPHKVELEALLEKQAYKEQVLAKRLTMLELLEKYPACEMKFSEFIALLPSIRPRYYSISSSPRVDEKQASITVSVVSGEAWSGYGEYKGIASNYLAELQEGDTITCFISTPQSEFTLPKDPETPLIMVGPGTGVAPFRGFVQARKQLKEQGQSLGEAHLYFGCRSPHEDYLYQEELENAQSEGIITLHTAFSRMPNQPKTYVQHVMEQDGKKLIELLDQGAHFYICGDGSQMAPAVEATLMKSYADVHQVSEADARLWLQQLEEKGRYAKDVWAG
# Assays:
# [1] = target: T1, CYP102A1 mutant #17 (Priestia megaterium, UniProt P14779, E144G/E268V/E65G/F82I/F88V/L189Q/R48L); format: biochemical, Bacillus megaterium; conditions: 50 μM αNF
# T1 construct: made in house; host or cells: Escherichia coli DH5αF′-IQ (soluble cytosolic fraction)
# Protocol: (§1) Reaction mixtures consists of 50 pmol P450, 100 mM potassium phosphate buffer (pH 7.4), a NADPH-generating system, and a substrate (100 μM of simvastatin or lovastatin) in the presence of αNF (2 to 50 μM).
# (§2) Products were analyzed by HPLC, as described above. In the case of human CYP3A4 activity assay, a control experiment of 50 pmol P450, 100 pmol NADPH-P450 reductase (CPR), 100 pmol cytocrhome b5, and 45 μM DLPC was used instead of 50 pmol CYP102A1.
# [2] = target: T2, CYP102A1 mutant #16 (Priestia megaterium, UniProt P14779, E144G/E268V/F82I/F88V/L189Q/R48L); format: biochemical, Bacillus megaterium; conditions: 50 μM αNF
# T2 construct: made in house; host or cells: Escherichia coli DH5αF′-IQ (soluble cytosolic fraction)
# Protocol: as §1, §2
# [3] = target: triple CYP102A1 mutant of R47L/F87V/L188Q (Priestia megaterium, UniProt P14779, F88V/L189Q/R48L); conditions: cited from earlier work
# [4] = Kinetic parameters of 6′β-hydroxylation of simvastatin; format: biochemical; conditions: 2 to 200 μM statin
# Protocol: (§3) The 6′β-hydroxylation rates of simvastatin (A) and lovastatin (B) were measured in reaction mixtures consistingof 50 pmol CYP102A1 in 0.25 ml of 100 mM potassium phosphate buffer (pH 7.4) along with a specified amount of substrate (2 to 200 μM of statins)
# (§4) It was examined whether CYP102A1 and mutants thereof can oxidize simvastatin and lovastatin. Typical steady-state reactions for the oxidation of simvastatin and lovastatin included 50 pmol CYP102A1 in 0.25 ml of 100 mM potassium phosphate buffer (pH 7.4) along with a specified amount of substrate. To determine the kinetic parameters of several CYP102A1 mutants, 2 to 200 μM of statins were used. An aliquot of a NADPH-generating system was used to initiate reactions (final concentrations: 10 mM glucose 6-phosphate, 0.5 mM NADP+, and 1 IU yeast […]). A stock solution of statins (20 mM) was prepared in DMSO and diluted into the enzyme reactions with a final organic solvent concentration of <1% (v/v).
# (§5) The kinetic parameters (Km and kcat) were determined using nonlinear regression analysis with GraphPad PRISM software (GraphPad, San Diego, Calif.). […]
# [5] = Kinetic parameters of 6′β-hydroxylation of lovastatin; format: biochemical; conditions: 2 to 200 μM statin
# Protocol: as §3, §4, §5
# [6] = Total turnover numbers of 6′β-OH product formation, lovastatin; format: biochemical; conditions: total 1.0 mM statin, 37° C., 4 hours
# Protocol: In order to measure the total turnover numbers (TTNs; mol product/mol catalyst) of mutant CYP102A1, total 1.0 mM statin was used. The reaction was initiated by the addition of the NADPH-generating system in the presence of 500 μM substrate and incubated at 37° C. for 4 hours. After 2 hours of incubation, the 500 μM substrate was added to the reaction mixture. […]
# [7] = Total turnover numbers of 6′β-OH product formation, simvastatin; format: biochemical; conditions: total 1.0 mM statin, 37° C., 4 hours
# Protocol: In order to measure the total turnover numbers (TTNs; mol product/mol catalyst) of mutant CYP102A1, total 1.0 mM statin was used. The reaction was initiated by the addition of the NADPH-generating system in the presence of 500 μM substrate and incubated at 37° C. for 4 hours. After 2 hours of incubation, the 500 μM substrate was added to the reaction mixture. The formation rate of simvastatin metabolites was determined by HPLC chromatograms.
# [8] = Oxidation of simvastatin by CYP102A1 wild type/mutants and human CYP3A4, product formation rate (turnover number); format: biochemical; conditions: 100 μM simvastatin; mean±SD of triplicate; N.D. = less than 0.001
# Protocol: as §4
# (§6) In the case of human CYP3A4 activity assay, a control experiment of 50 pmol P450, 100 pmol NADPH-P450 reductase (CPR), 100 pmol cytocrhome b5, and 45 μM L-α-dilauroyl-sn-glycero-3-phosphocholine (DLPC) was used instead of 50 pmol CYP102A1. After the solution was incubated for 30 minutes at 37° C., the reaction was terminated with 2-fold of ice-cold dichloromethane.
# (§7) After centrifugation of the reaction mixture, the supernatant was carefully removed and the solvent was evaporated under N2 gas as described in Vickers et al., 1990. The products were analyzed by HPLC using a Gemini C18 column (4.6 mm×150 mm, 5 μm, Phenomenex, Torrance, Calif.) with a mobile phase of acetonitrile/water (70/30, v/v) containing 2.5 mM formic acid. Eluates were detected by UV at 238 nm.
# (§8) First, the ability of wild-type and a set of P450 BM3 mutants to oxidize simvastatin and lovastatin was measured at a fixed substrate concentration (100 μM). While simvastatin and lovastatin are known to produce at least four and three metabolites, respectively, CYP102A1 mutants produced only two metabolites, one major (6β-OH statin) and one minor (6′-exomethylene statin) metabolites. The metabolites were analyzed by HPLC and compared to those of human CYP3A4 (FIGS. 1 and 2). Since there is no need to comprise a separate step of the 6′β-OH statin and 6′-exomethylene statin from other products, the use of wild-type and mutant CYP102A1 is beneficial.
# (§9) Assays were performed using 100 μM simvastatin or lovastatin. Values are the mean±SD of triplicate determinations.
# [9] = Oxidation of lovastatin by CYP102A1 wild type/mutants and human CYP3A4, product formation rate (turnover number); format: biochemical; conditions: 100 μM lovastatin; mean±SD of triplicate; N.D. = less than 0.001
# Protocol: as §4, §6, §7, §8, §9
# T2 sequence (P14779 2-1049 R48L/F82I/F88V/E144G/L189Q/E268V): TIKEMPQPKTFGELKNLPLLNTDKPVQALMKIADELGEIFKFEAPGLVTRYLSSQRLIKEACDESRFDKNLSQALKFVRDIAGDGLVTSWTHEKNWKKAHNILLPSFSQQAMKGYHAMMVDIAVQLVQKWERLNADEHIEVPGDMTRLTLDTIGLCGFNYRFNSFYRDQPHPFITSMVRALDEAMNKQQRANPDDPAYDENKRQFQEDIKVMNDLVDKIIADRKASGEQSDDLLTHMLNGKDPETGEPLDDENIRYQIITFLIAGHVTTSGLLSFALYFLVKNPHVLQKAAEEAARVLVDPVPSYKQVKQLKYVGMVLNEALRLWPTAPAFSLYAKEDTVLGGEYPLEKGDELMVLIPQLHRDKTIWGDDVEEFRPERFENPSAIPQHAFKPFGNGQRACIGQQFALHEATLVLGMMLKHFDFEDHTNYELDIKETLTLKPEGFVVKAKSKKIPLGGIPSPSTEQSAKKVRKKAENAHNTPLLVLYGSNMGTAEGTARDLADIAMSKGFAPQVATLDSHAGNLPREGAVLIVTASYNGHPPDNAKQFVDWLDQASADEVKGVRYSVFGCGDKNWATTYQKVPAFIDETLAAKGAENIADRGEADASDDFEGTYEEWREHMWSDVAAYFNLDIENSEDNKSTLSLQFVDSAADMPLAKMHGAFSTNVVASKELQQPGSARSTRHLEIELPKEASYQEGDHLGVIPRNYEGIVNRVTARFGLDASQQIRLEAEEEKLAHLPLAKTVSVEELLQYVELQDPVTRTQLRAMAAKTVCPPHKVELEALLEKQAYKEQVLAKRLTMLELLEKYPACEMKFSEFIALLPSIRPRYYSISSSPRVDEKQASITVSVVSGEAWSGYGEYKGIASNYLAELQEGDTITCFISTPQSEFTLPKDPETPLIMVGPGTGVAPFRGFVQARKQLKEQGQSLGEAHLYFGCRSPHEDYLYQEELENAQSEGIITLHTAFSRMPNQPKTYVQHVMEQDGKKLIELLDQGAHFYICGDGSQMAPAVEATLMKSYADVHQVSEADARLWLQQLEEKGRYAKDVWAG
# T1 sequence (P14779 2-1049 R48L/E65G/F82I/F88V/E144G/L189Q/E268V): as the sequence (P14779 2-1049 R48L/F82I/F88V/E144G/L189Q/E268V) above, with E64G counted along it
# Sequence of triple CYP102A1 mutant of R47L/F87V/L188Q (P14779 2-1049 R48L/F88V/L189Q): as the sequence (P14779 2-1049 R48L/F82I/F88V/E144G/L189Q/E268V) above, with I81F, G143E, V267E counted along it
Molecule,Inhibition of 6′β-hydroxylation activity of lovastatin ([1]; 100 μM lovastatin),Inhibition of 6′β-hydroxylation activity of simvastatin ([1]; 100 μM simvastatin),Inhibition of 6′β-hydroxylation activity of lovastatin ([2]; 100 μM lovastatin),Inhibition of 6′β-hydroxylation activity of simvastatin ([2]; 100 μM simvastatin),"Effect on metabolism of acetaminophen and 3,4-methylenedioxymethylamphetamine [3]",Km [4],"kcat, 6′β-hydroxylation of simvastatin [4]",Km [5],"kcat, 6′β-hydroxylation of lovastatin [5]","Total turnover number of 6′β-OH product formation, lovastatin [6]","Total turnover number of 6′β-OH product formation, simvastatin [7]",Simvastatin 6β′-OH product formation rate [8],Simvastatin 6′-Exomethylene product formation rate [8],Lovastatin 6β′-OH product formation rate [9],Lovastatin 6′-Exomethylene product formation rate [9],"Total turnover number of 6′β-OH product formation, lovastatin ([6]; listed as wild-type CYP102A1)","Total turnover number of 6′β-OH product formation, simvastatin ([7]; listed as wild-type CYP102A1)"
"O=c1cc(-c2ccccc2)oc2c1ccc1ccccc12 [αNF, 7,8-benzoflavone]",76%,77%,48%,44%,did not have a significant effect,,,,,,,,,,,,
"Human CYP3A4: human cytochrome P450 3A4, reconstituted with NADPH-P450 reductase, cytochrome b5 and DLPC",,,,,,130 µM,0.11 s⁻¹ and 0.11 ± 0.015 s⁻¹,54 ± 15 µM,0.07 s⁻¹ and 0.07 ± 0.0083 s⁻¹,44 ± 6 nmol product/nmol P450,35 ± 5 nmol product/nmol P450,3.0 ± 0.1 nmol product/min/nmol P450,0.22 ± 0.01 nmol product/min/nmol P450,6.5 ± 0.3 nmol product/min/nmol P450,0.43 ± 0.01 nmol product/min/nmol P450,,
B1,,,,,,,,,,1.9 ± 0.6 nmol product/nmol P450,0.77 ± 0.04 nmol product/nmol P450,0.0049 ± 0.0017 nmol product/min/nmol P450,N.D. (not detectable(the rate of product formation was less than 0.001 nmol product/min/nmol P450)),N.D. (not detectable(the rate of product formation was less than 0.001 nmol product/min/nmol P450)),N.D. (not detectable(the rate of product formation was less than 0.001 nmol product/min/nmol P450)),1.9 nmol product/nmol P450,0.77 nmol product/nmol P450

# From patent publication US9145571B2, “Preparation method of human metabolites of simvastatin or lovastatin using bacterial cytochrome P450 and composition therefor” (priority 2009, dated 2015)
